The results in this text go back to article doi:10.1101/2021.12.16.472979v1.

In general, Km refers to the concentration of substrate that gives half-maximal velocity.

Substrate in this data set: N[C@@H](Cc1ccccc1)C(=O)O
In words: LC-MS decarboxylation assay, Michaelis-Menten fit. The format is biochemical, Enterococcus faecium. As to conditions: 100 μM PLP, 200 mM sodium acetate pH 5.5, 100 nM enzyme, 37 °C.

B1: Efm_TyrDC (Enterococcus faecium) (protein)
chain: MKDMDIKAVFIGDKAENGPVYKMLLNKMVDEHLGWRENYIPSDMPAISEGDKLTPDYLATRDHMIEVLDEVSQRLRAGSIPWHSAGRYWGQMNAETLMPALLAYNYAMLWNPNNVALESSMATSQMEAEVGQDFASLFNMADGWGHIAADGSIANLEGLWYARCIKSIPLAVKEVLPEKVKNMSEWALLNLSVEEILEMTESFTDEEMDEVKAASSRSGKNIQKLGKWLVPQTKHYSWMKALDICGVGLDQMVAIPVQEDYRMDINALEKTIRELADQKIPILGVVAVVGTTEEGQVDSVDKIIQLREKLKDEGIYFYLHVDAAYGGYARSLFLNEAGEFVPYASLAEFFEEHHVFHHYVTIDKEVYEGFRAISEADSVTIDPHKMGYVPYAAGGIVIKHKNMRNIISYFAPYVFEKSVKAPDMLGAYILEGSKAGATAAAVWTAHRVLPLNVTGYGQLIGASIEAAQRFREFLEQLHFTVKGKTIEVYPLNHPDFNMVNWVFKVQDCTDLNAINELNEKMFDRSSYMDGDVYGERFITSHTTFTQEDYGDSPIRFIERMGLSKEEWQKEQQITLLRAAIMTPYLNDDRIFNFYTKEIAKAMEKKLNEIIK
Consider B1, for which the Km is on record as 8.5 mM.
